Reference: US8304388B2, “Imaging agents” (GE Healthcare Limited, priority 2006, dated 2012)
Bridges are numbered along the chain shown (N, C = ends). Where no end group is shown, it is not given here. 99mTc‑Chelate II = tetraamine chelate labelled with 99mTc, on the N-terminus

How the values were obtained:
collagen type I [1] = target: collagen type I (Homo sapiens, UniProt P02452+P08123); assay: In vitro binding to collagen type I coated plate
Protocol: A Maxisorp plate was incubated overnight at 4° C. with 50 μL or 100 μL 0.1 mg/mL collagen type I. All solutions were removed from the wells using a pipette. Wells were washed twice with 200 μL PBS, and then incubated with 150 μL PBS containing 0.1% BSA for 30 minutes at room temperature. Wells were washed five times with 200 μL PBS, and then 90 μL PBS was added to each well. 10 μL of neat (and two-fold serially diluted in PBS) Imaging Agent 1 was added to the wells in quadruplicate. The plate was sealed and incubated for 1 hour at 37° C.
The wells were washed seven times with ice-cold PBS (200 μL); and then the wells were transferred to a glass vial and counted (measured) for ^99mTc-activity using a Wallac counter for a 60 s count for each sample.
FIG. 1 illustrates binding of Imaging Agent 1 to collagen type I coated wells from one experiment.

collagen type I [2] = assay: saturation binding of 99mTc-labelled peptide to collagen type I coated Maxisorp wells, one-site hyperbola fit

collagen type I (Homo sapiens, UniProt P02452+P08123), sequence (P02452 162-1218 limits assumed): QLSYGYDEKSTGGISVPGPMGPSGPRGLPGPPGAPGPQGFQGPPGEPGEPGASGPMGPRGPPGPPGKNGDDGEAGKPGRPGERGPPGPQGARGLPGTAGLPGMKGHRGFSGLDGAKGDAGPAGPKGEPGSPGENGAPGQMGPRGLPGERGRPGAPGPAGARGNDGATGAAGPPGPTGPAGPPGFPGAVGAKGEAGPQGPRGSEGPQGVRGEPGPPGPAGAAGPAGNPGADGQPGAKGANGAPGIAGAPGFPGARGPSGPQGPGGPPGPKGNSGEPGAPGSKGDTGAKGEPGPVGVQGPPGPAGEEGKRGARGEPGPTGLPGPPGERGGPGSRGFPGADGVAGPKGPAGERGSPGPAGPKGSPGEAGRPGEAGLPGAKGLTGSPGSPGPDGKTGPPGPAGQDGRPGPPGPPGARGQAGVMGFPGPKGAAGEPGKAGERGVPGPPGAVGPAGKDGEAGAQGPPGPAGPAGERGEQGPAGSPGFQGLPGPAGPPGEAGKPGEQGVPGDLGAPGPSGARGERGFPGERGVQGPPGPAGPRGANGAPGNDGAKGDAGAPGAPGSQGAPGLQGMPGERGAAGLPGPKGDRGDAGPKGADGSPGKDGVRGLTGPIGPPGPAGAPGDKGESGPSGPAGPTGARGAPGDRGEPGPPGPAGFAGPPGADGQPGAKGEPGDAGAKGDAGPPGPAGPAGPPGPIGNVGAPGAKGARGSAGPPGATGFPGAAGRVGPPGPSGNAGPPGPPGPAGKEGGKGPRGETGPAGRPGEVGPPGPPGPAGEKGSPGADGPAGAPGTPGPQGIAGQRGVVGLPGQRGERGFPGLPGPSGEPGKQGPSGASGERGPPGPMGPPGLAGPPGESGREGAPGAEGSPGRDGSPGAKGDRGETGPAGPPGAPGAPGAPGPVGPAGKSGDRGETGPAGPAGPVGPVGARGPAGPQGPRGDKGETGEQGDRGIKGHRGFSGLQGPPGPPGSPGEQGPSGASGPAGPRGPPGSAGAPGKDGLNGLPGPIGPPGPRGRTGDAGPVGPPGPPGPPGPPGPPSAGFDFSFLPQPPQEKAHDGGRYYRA
collagen type I (Homo sapiens, UniProt P02452+P08123), sequence (P08123 80-1119 limits assumed): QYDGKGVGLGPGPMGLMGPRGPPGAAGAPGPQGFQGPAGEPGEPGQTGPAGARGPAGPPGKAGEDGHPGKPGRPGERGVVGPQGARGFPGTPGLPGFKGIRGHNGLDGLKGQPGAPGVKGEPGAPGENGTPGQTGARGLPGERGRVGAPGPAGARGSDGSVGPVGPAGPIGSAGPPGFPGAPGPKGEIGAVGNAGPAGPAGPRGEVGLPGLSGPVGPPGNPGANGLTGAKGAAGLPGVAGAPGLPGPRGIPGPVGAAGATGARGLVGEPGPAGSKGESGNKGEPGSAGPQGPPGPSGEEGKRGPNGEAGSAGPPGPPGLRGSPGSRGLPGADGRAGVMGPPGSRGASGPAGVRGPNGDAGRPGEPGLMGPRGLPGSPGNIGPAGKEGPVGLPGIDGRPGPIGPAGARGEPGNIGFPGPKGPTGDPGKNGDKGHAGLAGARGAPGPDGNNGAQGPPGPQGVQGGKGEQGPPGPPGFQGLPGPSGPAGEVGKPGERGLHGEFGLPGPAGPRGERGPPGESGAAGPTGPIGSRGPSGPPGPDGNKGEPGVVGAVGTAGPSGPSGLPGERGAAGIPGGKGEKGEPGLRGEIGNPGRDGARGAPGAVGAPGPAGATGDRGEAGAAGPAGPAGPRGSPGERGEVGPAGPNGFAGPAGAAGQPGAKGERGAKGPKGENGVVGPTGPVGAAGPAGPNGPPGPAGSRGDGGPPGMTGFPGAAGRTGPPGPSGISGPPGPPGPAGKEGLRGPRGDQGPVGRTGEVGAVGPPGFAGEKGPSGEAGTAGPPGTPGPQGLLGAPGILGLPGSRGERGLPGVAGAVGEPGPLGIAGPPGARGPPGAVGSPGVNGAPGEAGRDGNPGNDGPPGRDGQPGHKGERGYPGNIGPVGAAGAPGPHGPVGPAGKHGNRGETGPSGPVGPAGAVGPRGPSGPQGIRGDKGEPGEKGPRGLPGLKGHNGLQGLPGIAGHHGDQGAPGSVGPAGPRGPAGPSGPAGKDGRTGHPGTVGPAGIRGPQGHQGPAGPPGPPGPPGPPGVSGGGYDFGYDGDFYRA

Molecule	binding to collagen in vitro (collagen type I [1])	Bmax (collagen type I [2])	Kd (collagen type I [2])
^123I-labelled Ac-CKELNVLYTC-NH2 (disulfide 1-10; also: 123I-labelled) [Imaging Agent 36]	bind with high affinity to collagen in vitro	–	–
^123I-labelled KELNVLYT-NH2 (also: 123I-labelled) [Imaging Agent 35]	bind with high affinity to collagen in vitro	–	–
^123I-labelled Ac-KELNLVYT-NH2 (also: 123I-labelled) [Imaging Agent 29]	bind with high affinity to collagen in vitro	–	–
{99mTc‑Chelate II}-ANAALKAGELYKCILY-NH2 (also: 99mTc complex) [Imaging Agent 1: [99mTc-Chelate II]-…-NH2]	–	1070 attomoles	194 nM
